PMC7041945, “Misfolded proteins bind and activate death receptor 5 to trigger apoptosis during unresolved endoplasmic reticulum stress” (eLife, 2020)
Blank lines part the entries; values can stand above or below the binder they belong to. No end group written: not given here.

Tests used:
Settings in all cases: both partners purified
[1] = target: T1, Fc-tagged DR5 ectodomain (long isoform) (human, UniProt O14763 56-210); assay: pull-down; Fc-tagged ECD held on Dynabeads Protein G, incubated with peptide in 20 mM HEPES pH 7.2, 100 mM KOAc, 0.2% Tween-20, 1 hr at RT; Coomassie-stained SDS-PAGE
T1 construct: DR5 extracellular domain, long isoform; 55 kDa on SDS-PAGE by the legend; also called Fc-tagged DR5 ECD; Fc-tagged DR5L ECD; source: recombinant, generated and purified at Genentech Inc

[2] = target: T1, Fc-tagged DR5 ectodomain (long isoform); assay: peptide or protein array; 18-residue peptides tiled on the array; 500 nM Fc-tagged DR5 ECD in 50 mM HEPES pH 7.2, 250 mM NaCl, 10% glycerol, 1 hr at room temperature; detected with anti-Fc
[3] = target: T2, FLAG-tagged DR5 long isoform ECD (human); assay: SEC; 25 μM recombinant DR5L ECD alone or pre-incubated overnight at 4°C with 100 or 400 μM fluorescein-conjugated peptide or 25 μM TRAIL; SuperDex200 10/300 GL, 30 mM HEPES pH 7.2, 150 mM NaCl; fractions on SDS-PAGE, fluorescence scan and Coomassie
T2 construct: human DR5 ECD, long isoform, residues 72-213; Dimer without peptide by cross-linking; multimers with peptide; also called FLAG-tagged DR5L ECD; recombinant DR5L ECD; source: SF21 (baculovirus), secreted, purified (HisTrapFF, SuperDex200); not shown: FLAG, C-terminal, kept
T2 sequence (chain, as listed by the source): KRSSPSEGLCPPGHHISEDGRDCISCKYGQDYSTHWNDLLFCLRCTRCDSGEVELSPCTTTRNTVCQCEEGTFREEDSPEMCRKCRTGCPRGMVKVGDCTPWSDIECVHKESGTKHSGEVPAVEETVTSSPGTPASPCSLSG

binding result [1]: binds
B1: MPZ-ecto^VD peptide (peptide)
peptide: VSDDISFTWRYQPEGGRD
notes: stretch of the ectodomain of human myelin protein zero; source: synthetic peptide, GenScript (>95% purity)

binding result [2]: binds
B2: MPZ-ecto peptide (peptide)
peptide: FTWRYQPEGGRDAISIFHYA
notes: stretch of the ectodomain of human myelin protein zero; The array spots are 18-residue peptides; also called spots C18-C19 of the peptide array; source: synthetic peptide, GenScript (>95% purity); as spots C18-C19 on the peptide array of the MIT Biopolymers Laboratory

binding result [3]: binds
B3: fluorescein-conjugated MPZ-ecto peptide (peptide)
peptide: FTWRYQPEGGRDAISIFHYA
modifications: also: fluorescein-conjugated, site not given here
notes: stretch of the ectodomain of human myelin protein zero; also called fluorescein-labeled MPZ-ecto peptide; source: synthetic peptide
